The text below walks through data of article PMC4975481.

To fix the notation:
B1: DSTL096 (VHH)
VHH: RVDQTPRSVTKETGESLTINCVLRDASYAVGSTCWYRKKSGSTNEESISKGGRYVETVNSGSKSFSLRINDLTVEDGGTYRCGVSTYNWCGVRGLGCVHGACGDGTAVTVN
B2: SK to RI (VHH)
VHH: TRVDQTPRTATKETGESLTINCVLRDASYAVGSTCWFRKNPGTTDEERISIGGRYVESVNKGAKSFSLRIKDLTVADSATYYCGVSTYNWCGVRGLGCVHGACGDGTALTVK
B3: E to W (VHH)
VHH: B2 VHH with E46W, R48S, I51K
B4: EK to WI (VHH)
VHH: B2 VHH with E46W, R48S
B5: K to I (VHH)
VHH: B2 VHH with R48S
B6: SP15-096-123 (VHH)
VHH: B2 VHH with R48S, I51K
B7: SP15-096-13 (VHH)
VHH: B2 VHH with E46W
B8: S to R (VHH)
VHH: B2 VHH with I51K
B9: ES to WR (VHH)
VHH: B2 VHH with E46W, I51K

Residue numbers refer to the chain shown, from its start.

Ebola virus nucleoprotein, recombinant construct consisting of the C-terminal portion of NP (Ebola virus (EBOV; formerly the Zaire ebolavirus)), sequence (P18272 641-739 limits assumed): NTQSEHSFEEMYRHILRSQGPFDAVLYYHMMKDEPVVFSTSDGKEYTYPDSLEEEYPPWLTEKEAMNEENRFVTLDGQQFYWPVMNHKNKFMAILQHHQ

The test concerns the target Ebola virus nucleoprotein, recombinant construct consisting of the C-terminal portion of NP (Ebola virus (EBOV; formerly the Zaire ebolavirus)). The experiment in a line: SPR; ProteOn XPR36; […] (10 mM acetate pH 5.0); […]; Langmuir model.
As to B1, the Kd (in general, the constant that tells how readily two partners part at equilibrium) is 0.39 nM. For B2, the Kd is 22 nM. For B3, the dissociation constant Kd is 0.34 nM. With B4, the Kd was found to be 3.6 nM. With B5, the Kd was 2.2 nM. On to B6, for which the dissociation constant Kd came out at 0.37 nM.

Consider B7, for which the Kd was 27 nM.

In the case of B8, the dissociation constant (Kd) came to 2.3 nM.

For the molecule B9, the dissociation constant Kd was found to be 12 nM.
